Measurements taken from the supplement of paper PMC9170038.

System: MS2 coat protein
Assay: apparent KD of MS2 coat protein; designed switch direction (-1 OFF switch, 1 ON switch): -1; higher = weaker reporter binding
Method in brief: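 Each step of the titration lasted 0.8–1.5 h at the lowest concentration and 10–20 min at the highest. The protein, SNAP-549-labelled MS2 coat protein, went from 0.7 or 1.5 nM doubling to 3 µM over RNA switches transcribed on Illumina chips by stalled E. coli RNA polymerase. Normalised cluster fluorescence was curve-fitted, and the per-design median over clusters is given as apparent KD.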

[1] = input ligand: microRNA oligo, concentration not stated
[2] = Eterna round: R95, input ligand: FMN 200 uM
[3] = Eterna round: R95, input ligand: microRNA oligo, concentration not stated
[4] = Eterna round: R95, input ligand: none

| Sequence | apparent KD of MS2 coat protein (input ligand: FMN 200 uM) [nM] | apparent KD of MS2 coat protein [1] [nM] | apparent KD of MS2 coat protein (input ligand: none) [nM] | apparent KD of MS2 coat protein [2] [nM] | apparent KD of MS2 coat protein [3] [nM] | apparent KD of MS2 coat protein [4] [nM] |
| --- | --- | --- | --- | --- | --- | --- |
| AAAAAAAGACAAGAGGAGAUUCGUCUUAAAAAUCCUCAAACAUGAGGAUCACCCAUGUAAAAUGAUCGAAAGAUCAA [Mat - Sensor v2 - ver2 - JL mod - D39] (Eterna round: R96, puzzle: Sensor v2, turn-off variant 2) | 25.7 | 24 | 29.2 | – | – | – |
| AAAAAACAAGGAUAUACGAAGGAGGGUUGUCUUAAUUUUUGACAUGAGGAUCACCCAUGUAGAAGGUGUUAAAA [JR_Exclusion2_Sub012] (puzzle: Exclusion 2) | – | – | – | 146 | 186 | 188 |
| AAAAAACAAGGAUAUACGCACGAGGAUUGUCUUAAUUUUUGACAUGAGGAUCACCCAUGUAGAAGGUGUUAAAA [JR_Exclusion2_Sub014] (puzzle: Exclusion 2) | – | – | – | – | 76.5 | – |
| AAAAAACAAGGAUAUACGUAUGAGGAUUGUCUUAAUUUUUGACAUGAGGAUCACCCAUGUAGAAGGUGUUAAAA [JR_Exclusion2_Sub015] (puzzle: Exclusion 2) | – | – | – | – | 94.9 | – |
| AAAAAAUACAUGAGGAUCACCCAUGUAGAGUGGGAAGAGAGAUAGGAUAUGAUGUGAGAAUCAUAUCAGAAGGAUCGAGACUCA [AK ExNG3-2.2] (Eterna round: R96, puzzle: Exclusion NG 3) | 143 | 110 | 139 | – | – | – |
| AAAAACAAGCCCAUGCUCGUCUUAAGAUCGAAAGAUCAAACAUGAGGAUCACCCAUGUGCGAGCAUGGGUGAUCCUC [Sensor v2, turn off variant 2 (JL Turnoff v2 4 - MOD3)] (Eterna round: R96, puzzle: Sensor v2, turn-off variant 2) | 21.9 | 10.2 | 16.6 | – | – | – |
| AAAAAGAGAGGAUAUACAUGAGGAUCACCCAUGUGAGGGCACCGCGGGCGCGGGACCCGUAGAAGGCUCAAAAA [Exc;s3-I] (puzzle: Exclusion 3) | – | – | – | 16.5 | 14.7 | 20.5 |
| AAAAAGGCAGGAUAUACGAGUCAAAGAAAAGACAAAAGGAGACAUGAGGAUCACCCAUGUAGAAGGGCCAAAAA [Fiskers exclusion D2 62% 5] (Eterna round: R96, puzzle: Exclusion 2) | 85.2 | 20.6 | 25.3 | – | – | – |
| AAAAAGGGAGGAUAUACAUGAGGAUCACCCAUGUAGCAGACGAAAAAGAGUCUGUAAUGUAGAAGGCCCAAAAA [65%, Moding Exclusion3-cac2, 4] (Eterna round: R96, puzzle: Exclusion 3) | 50.9 | 13.1 | 17.5 | – | – | – |
| AAAAAGUUAGGAUAUACAUGAGGAUCACCCAUGUACAUAUAUGGAGAAAAAAACAGUAGUAGAAGGGACAAAAA [EX2 Malc#12] (Eterna round: R96, puzzle: Exclusion 3) | 28.8 | 23.3 | 29.2 | – | – | – |
| AAAACCAGAGGAUAUGCGCAUAGAUAAGACUUUGUUUCUUAACAUGAGGAUCACCCAUGUAGAAGGCUGUAAAA [Ex2 #71] (Eterna round: R97, puzzle: Exclusion 2) | 20.6 | – | 22 | – | – | – |
| AAAACGGCAGGAUAUACAUGAGGAUCACCCAUGUGAAAUAAAAUAAAAUAAAAUAAAAGUAGAAGGGCCAAAAA [Exclusion 3 #3] (puzzle: Exclusion 3) | – | – | – | 40.4 | 40.7 | 58.6 |
| AAAACUGCCUAGGAUAUCUGAAGCCGAGGUAGAAGAGAAGGAGGCACAUGAGGAUCACCCAUGUCCCUCAUAAA [EX6 A.8] (Eterna round: R97, puzzle: Exclusion 6) | 16.8 | – | 14.3 | – | – | – |
| AAAACUGCUCAGGAUAUUUGUGUGUCAGGGCAUAAAGAAGGGAGCACAUGAGGAUCACCCAUGUGUUGGGUUCC [Zasozaer] (puzzle: Exclusion 6) | – | – | – | – | 68.7 | – |
| AAAACUUUGAGAGGAUAUCUGAAAGGAAGUGUAAGAGAAGGCUCAGAGGACAUGAGGAUCACCCAUGUACGUCAUGGGCUCCGA [PowerStrip EXNG 1.15] (Eterna round: R96, puzzle: Exclusion NG 1) | 49.8 | 39.6 | 111 | – | – | – |
